Laboratory results taken from patent publication US20250129141A1 (BEIJING WISDOMAB BIOTECHNOLOGY, published 2025).
Numbering of substitutions follows the chain as printed.

Molecular target: recombinant protein of C-terminal domain of tetanus toxin heavy chain with C-terminal His tag (TT-Hc-His) (Clostridium tetani, UniProt P04958 865-1315)

B1: S22E2-h1-IgG1 (antibody, V domains shown)
VH: QVTLKESGPVLVKPTETLTLTCTVSGFSLTDYGVNWIRQPPGKALEWLGMIWSDGTTDYSSALKSRLTISKDTSKSQVVLTMTNMDPVDTATYYCARVDGYSHYYAMDYWGQGTLVTVSS
VL: DIQMTQSPSSLSASVGDRVTITCRASENIYSYLAWYQQKQGKAPQLLIYNAKTLAEGVSSRFSGSGSGTQFTLTISSLQPEDFATYYCQHHYGLPFTFGQGTKLEIK
Kd: 0.573 nM

B2: S24B8-h1-IgG1 (antibody, V domains shown)
VH: QVQLVQSGAEVKKPGSSVKVSCKASGYTFTSYWIYWVRQAPGQGLEWIGEINPTNGFANYNEKFKTKATITVDKSTSTAYMELSSLRSEDTAVYYCAIHFRFPYWGQGTMVTVSS
VL: DIQMTQSPSSLSASVGDRVTITCRASQDIGSSLTWLQQKPGKAPKRLIYATSSLDSGVPSRFSGSGSGTDYTLTISSLQPEDFATYYCLQYASSPYTFGQGTKLEIK
koff: < 1e-05 s⁻¹

B3: S24B8-h2-IgG1 (antibody, V domains shown)
VH: B2 VH with N55A
VL: B2 VL
Kd: 0.385 nM

B4: S24B8-h3-IgG1 (antibody, V domains shown)
VH: B2 VH with G56A
VL: B2 VL
Kd: 0.164 nM
